From PMC5012629 (International Journal of Nanomedicine, 2016) come the findings set out here.

The target of assay [1] is T1, Full length untagged human MDM2 (Murine double minute 2) (human, UniProt Q00987 1-491). As to the kind of experiment: atomic force spectroscopy.
The target in assay [2] is T1, Full length untagged human MDM2 (Murine …). As to the kind of experiment: SPR.

T1 sequence (Q00987 whole entry): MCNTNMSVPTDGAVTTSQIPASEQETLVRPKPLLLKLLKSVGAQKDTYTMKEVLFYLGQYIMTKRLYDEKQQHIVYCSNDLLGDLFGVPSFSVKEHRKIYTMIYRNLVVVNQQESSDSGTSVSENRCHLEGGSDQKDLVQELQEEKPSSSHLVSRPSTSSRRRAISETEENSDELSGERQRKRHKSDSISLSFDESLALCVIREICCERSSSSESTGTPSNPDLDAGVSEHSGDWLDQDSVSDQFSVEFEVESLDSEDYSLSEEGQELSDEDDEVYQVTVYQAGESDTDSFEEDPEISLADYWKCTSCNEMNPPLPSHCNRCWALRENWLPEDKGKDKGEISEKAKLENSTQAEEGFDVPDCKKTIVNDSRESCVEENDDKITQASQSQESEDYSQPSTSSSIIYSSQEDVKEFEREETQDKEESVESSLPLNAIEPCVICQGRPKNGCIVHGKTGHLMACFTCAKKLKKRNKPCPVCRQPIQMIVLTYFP

B1: Full length N-terminal glutathione S-transferase (GST)-tagged human MDM4 (Murine double minute 4) (natural protein, UniProt O15151 1-490, looked up)
chain: MTSFSTSAQCSTSDSACRISPGQINQVRPKLPLLKILHAAGAQGEMFTVKEVMHYLGQYIMVKQLYDQQEQHMVYCGGDLLGELLGRQSFSVKDPSPLYDMLRKNLVTLATATTDAAQTLALAQDHSMDIPSQDQLKQSAEESSTSRKRTTEDDIPTLPTSEHKCIHSREDEDLIENLAQDETSRLDLGFEEWDVAGLPWWFLGNLRSNYTPRSNGSTDLQTNQDVGTAIVSDTTDDLWFLNESVSEQLGVGIKVEAADTEQTSEEVGKVSDKKVIEVGKNDDLEDSKSLSDDTDVEVTSEDEWQCTECKKFNSPSKRYCFRCWALRKDWYSDCSKLTHSLSTSDITAIPEKENEGNDVPDCRRTISAPVVRPKDAYIKKENSKLFDPCNSVEFLDLAHSSESQETISSMGEQLDNLSEQRTDTENMEDCQNLLKPCSLCEKRPRDGNIIHGRTGHLVTCFHCARRLKKAGASCPICKKEIQLVIKVFIA
Molecule B1 showed a dissociation rate constant (koff) in assay [1] of 0.02 ± 0.01 s⁻¹. Besides, the Kd in assay [2] is 2000 nM.
